The values below are quoted from earlier work in article PMC4457300.

The target of this data set is MLL MBM1 4-15 (Homo sapiens) (UniProt Q03164).

menin (from UniProt O00255): the Kd is 56 nM.

The term Kd denotes the free concentration of one partner at which half of the binding sites on the other are occupied at equilibrium, for simple one-to-one binding.
